Data on four molecules can be found in patent WO2008021263A2 (dated 2008).

Residue numbers refer to the chain shown, from its start.

For assay [1], the target named is T1, dimeric form of SDF-1α (Felis catus (Cat) (Felis silvestris …, UniProt O62657 22-89)).
T1 construct: Same protein as m1; also called SDF-lα dimers; dimeric state of the SDF-1α antigen
The assay can be described thus: SPR, both formats (SDF-1α on chip; Fab on anti-CH1 chip).

In assay [2] the target is T2, SDF-1α (stromal cell-derived factor-1 alpha) (Felis catus (Cat) (Felis silvestris …, UniProt O62657 22-89)).
T2 construct: also called SDF-lα; SDF-I α
T2 sequence (O62657 22-89 limits assumed): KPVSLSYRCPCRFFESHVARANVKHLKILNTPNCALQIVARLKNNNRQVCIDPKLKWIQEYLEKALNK
The assay is described as follows: SPR, SDF-1α with heparin in solution (Figure 7 legend: 1D3 IgG).

Assay [3] concerns the target T1, dimeric form of SDF-1α. The assay is described as follows: SPR, IgG immobilised on chip, SDF-1α flowed (Table VI, not shown). Background: Surface plasmon resonance follows binding to a sensor surface in real time, without labels.
The target in assay [4] is SDF-FITC (FITC-labelled SDF-1α) (Felis catus (Cat) (Felis silvestris …, UniProt O62657 22-89, FITC label, site not stated)). The assay is described as follows: fluorescence polarization time course with FITC-labelled SDF-1α (Figures 8A-8C).
Chain of SDF-FITC (FITC-labelled SDF-1α) (Felis catus (Cat) (O62657 22-89 limits assumed): as above
In assay [5] the target is T2, SDF-1α (stromal cell-derived factor-1 …). The assay can be described thus: SPR, time course after dilution of SDF-1α in buffers HBS-EP, HBS-P and HBS-N.
The target is the same in assay [6]. The assay can be described thus: SPR, Fab captured on anti-CH1 chip, SDF-1α flowed (Table IV, not shown).

T1 sequence (O62657 22-89 limits assumed): as above

B1: 1D3 Fab (Fab, V domains shown)
VH: EVQLVQSGAEVKKPGASVKVSCKVSGYTLTKLSVHWVRQAPGKGLEWMGSFDPEDGETIYSQRFQGRVTMTEDTSTDTAYMELTSLRSEDTAVYYCATEGQWLVAYYGMDVWGQGTTVTVSS
VL: EIVLTQSPSSLSASVGDRVTITCRASQGISSALAWYQQKPGKAPKLLIYDASSLESGVPSRFSGSGSGTDFTLTISSLQPEDFATYYCQQFNSYPLTFGGGTKVEIK
notes: Fab of the 1D3 human monoclonal antibody; the constant parts are not; also called B-type Fab
Regarding B1, the binding result with dimeric form of SDF-1α [1] was “binds”.

B2: 1D3 IgG (antibody, V domains shown)
VH: B1 VH
VL: B1 VL
notes: Human monoclonal IgG; also called B-type IgG; B-type antibody
For the molecule B2, the binding result (in assay [2]; with dimeric form of SDF-1α [3]; in assay [4]) was “binds” in each case.

B3: 1H2 IgG (antibody, V domains shown)
VH: B1 VH with E1Q, L29F, T84S, T117M
VL: B1 VL
notes: as for B2
Regarding B3, the binding result (in the assay with dimeric form of SDF-1α [3]; in assay [5]; in assay [4]) was “binds” each time.

B4: 1H2 Fab (Fab, V domains shown)
VH: B1 VH with E1Q, L29F, T84S, T117M
VL: B1 VL
notes: Fab of the 1H2 human monoclonal antibody; the constant parts are not; also called B-type Fab
On to B4, for which the binding result (with dimeric form of SDF-1α [1]; in assay [6]) was “binds” in each case.
